Assay results reported in paper PMC2690642 (Journal of neurochemistry, 2008).

B1: regulatory (R) domain of the N-methyl-D-aspartate receptor NR2A subunit, NR2A(23-389) (domain or fragment)
chain: not shown
B2: regulatory (R) domain of the N-methyl-D-aspartate receptor NR2B subunit, NR2B(27-390) (domain or fragment)
chain: not shown

Tests used:
[1] = biological target: the molecule itself; assay: SEC
[2] = biological target: B1; assay: co-IP
[3] = biological target: B2; assay: co-IP

Binder | percentage of the monomer form [1] [%] | binding result [2] | binding result [3]
regulatory (R) domain of the N-methyl-D-aspartate receptor NR1 subunit, NR1(19-380) (domain or fragment) not shown | 37 | binds | binds
B1 | 73 | – | –
B2 | 71 | – | –
